What all share (assay): cell_activity
Data set [1] deals with HprCH3.3/HprCH3.4 G19S heterodimer chain1: Y33H,42A,43L; chain2: G19S,S32T,Y33H,Q44R,R68Y,R70S,72T,D75N,I77N. The note with it: [none]; CHO chromosomal assay, maximum.
Data set [2] has as its system HprCH3.3 G19S/HprCH3.4 G19S heterodimer chain1: G19S,Y33H,42A,43L; chain2: G19S,S32T,Y33H,Q44R,R68Y,R70S,72T,D75N,I77N. The note with it: [none]; no LacZ+ foci.
In data set [3] the test system is HprCH3.3 G19S/HprCH3.4 heterodimer chain1: G19S,Y33H,42A,43L; chain2: S32T,Y33H,Q44R,R68Y,R70S,72T,D75N,I77N. The note with it: [none]; CHO chromosomal assay, maximum.
For data set [4], the system named is HprCH3.3/HprCH3.4 heterodimer chain1: KNSHQS/QRRDI/42A43L (Y33H,42A,43L); chain2: KNTHQS/RYSNN/72T (S32T,Y33H,Q44R,R68Y,R70S,72T,D75N,I77N). The note with it: [none]; CHO chromosomal assay, maximum.
The subject of data set [5] is HBB5 H3 V105A I132V/H4a heterodimer H3: 30S,33H,38R,44K,68Y,70S,77T,V105A,I132V; H4a: 19S,32T,44A,70S,75E,77R,80K,96R. The note with it: [none]; yeast beta-galactosidase value.
Data set [6] deals with HBB5 H3 V105A/H4b heterodimer H3: 30S,33H,38R,44K,68Y,70S,77T,V105A; H4b: 24V,43L,44A,70S,75E,77R,80K,87L,96R. The note with it: [none]; yeast beta-galactosidase value.
In data set [7] the test system is HBB5 H3/H4a heterodimer H3: 30S,33H,38R,44K,68Y,70S,77T; H4a: 19S,32T,44A,70S,75E,77R,80K,96R. Particulars: [none]; yeast beta-galactosidase value.
Data set [8] deals with HBB5 H3 V105A/H4a heterodimer H3: 30S,33H,38R,44K,68Y,70S,77T,V105A; H4a: 19S,32T,44A,70S,75E,77R,80K,96R. The note with it: [none]; yeast beta-galactosidase value.
The test system of data set [9] is HBB5 H3 I132V/H4a heterodimer H3: 30S,33H,38R,44K,68Y,70S,77T,I132V; H4a: 19S,32T,44A,70S,75E,77R,80K,96R. The note with it: [none]; yeast beta-galactosidase value.
Data set [10] relates to HBB5 H3/H4b heterodimer H3: 30S,33H,38R,44K,68Y,70S,77T; H4b: 24V,43L,44A,70S,75E,77R,80K,87L,96R. The note with it: [none]; yeast beta-galactosidase value.
The test system of data set [11] is HBB5 H3 I132V/H4b heterodimer H3: 30S,33H,38R,44K,68Y,70S,77T,I132V; H4b: 24V,43L,44A,70S,75E,77R,80K,87L,96R. Particulars: [none]; yeast beta-galactosidase value.
For data set [12], the system named is HBB5 H3 V105A I132V/H4b heterodimer H3: 30S,33H,38R,44K,68Y,70S,77T,V105A,I132V; H4b: 24V,43L,44A,70S,75E,77R,80K,87L,96R. Particulars: [none]; yeast beta-galactosidase value.

This note sets out measurements from patent publication US20100203031.

For the sequence “TCGAGATGTCATGAAAGAGATGGA (double strand) [HprCH3]”, the activity (LacZ repair frequency) in data set [1] is 0.012; in [2], below 6e-06; in [3], 0.0115; in data set [4], 0.002.
For the sequence “TTGGTCTCCTTAAACCTGTCTTGA (double strand) [HBB5]”, the activity in [5] came to 0.77; in data set [6], 0.37; in data set [7], 0.34; in [8] it was 0.47; in [9], 0.49; in [10], 0.29. For the same sequence, the activity amounted to 0.37 in [11] and 0.56 in [12].
